The text below walks through data of patent US20260258115A1.

Broadly, the Kd is the constant that tells how readily two partners part at equilibrium.

Assay [1] concerns the target RSV prefusion F (preF, DS-Cav1) (Respiratory syncytial virus). Description: BLI, IgG on sensor, 100 nM antigen. For orientation: In BLI a coated tip is dipped into the sample, and binding shifts an interference pattern.
Assay [2] addresses RSV postfusion F (postF, F deltaFP) (Respiratory syncytial virus). Description: BLI, IgG on sensor, 100 nM antigen.

B1: ADI-41281 (antibody, V domains shown)
VH: QVQLVQSGAEVKKPGASVKVSCKASGYSFTNHGIHWVRQAPGQRLEWMGWINVANGFTAYSQNLQGRVTFTRDTSASTAYLELTSLRSEDTAVYHCARDESYCSAGYCYLYFDYWGQGTTVTVSS
VL: DIQVTQSPSSLSASVGDRVTITCRASQNIITYVNWYQQKPGKAPELLIFGASSVQSGVPSRFSGSGSGTDFTLTISSLRPDDFATYYCQQSYSNPRTFGGGTKVEIK
Take B1: the values for the Kd in assay [1] and in assay [2] were 6.7 nM and 1.58 nM, respectively.

B2: ADI-41252 (antibody, V domains shown)
VH: EVQLVQSGAEVKKPGESLKISCMGSGYNFPNYWIGWVRQMSGKGLEWMGIIYPDDSDTTYSPSFQGQVIFSADKSISTAYLQWSSLKASDTAMYFCVRLDKTTQIDFWGQGTLVTVSS
VL: EIVLTQSPSSLSASVGDRVTITCQASQDISNYLNWYQQKPGKAPKLLIYDVSNLETGVPSRFSGSGSGTDFTFTISSLQPEDIATYYCQQHDNLPLTFGQGTRLEIK
As to B2, the Kd in assay [1] came out at 1.37 nM; in assay [2], 1 nM.

B3: ADI-41263 (antibody, V domains shown)
VH: QVQLVQSGAEVKKPGASVKVYCKASGYTFTSHYIHWVRQAPGQGLEWMGRMNPSGGSPMYAQKFQERVTMTRDTSTSTAYMELRSLRSEDTAVYYCAMAKFYSFDYWGQGTLVTVSS
VL: QSVLTQPHSVSESPGKTVTISCTRSSGSIASYFVHWYQQRPGSAPTIVIYEDNQRPSGVPDRFSGSIDSSSNSASLTISGLKTEDEADYYCQSYDSSNWVFGGGTKLTVL
B3: the results for the Kd in assay [1] and in assay [2] were 2.9 nM and 0.345 nM, respectively.

B4: ADI-41265 (antibody, V domains shown)
VH: EVQLVQSGAEVKKPGESLTISCKDSGYSFTSYWIGWVRQVPGKGLEWMGIVYPGDSRYSPSFQGHVTMSADKSINTAYLQWSTLKASDTAMYYCAKVVTYGSAIRWFESWGQGTLVTVSS
VL: QSVLTQPPSVSAAPGQKVSISCSGSSSNIGNNFVSWYQQVPGTAPKLLIIDNNKRPSGIPDRFSGSKSGTSATLGITGLQTGDEADYYCGTWDSRLSAEVFGGGTKLTVL
On to B4, for which the Kd in assay [1] came to 15 nM; in assay [2], 3.08 nM.

B5: ADI-41285 (antibody, V domains shown)
VH: QVQLVQSGAEVKKPGSSVKVSCKASGGTFSYYAISWVRQAPGQGLEWMGGIIPILGTVKNAQKFQGRVTITADKITSIAYMELSSLRHEDTAVYYCARDYYDSSGYYYNGYGMDVWGQGTTVTVSS
VL: QSVLIQPPSASGTPGQRVTISCSGSSSNIGSNYVYWYQQLPGTAPKLLIYRNDQRPSGVPDRFSGSKSGTSASLAISGLRSGDEADYYCAAWDDSLGGPIWVFGGGTKLTVL
As for B5, the equilibrium dissociation constant (Kd) turned out to be 0.511 nM in assay [1] and 0.412 nM in assay [2].

B6: ADI-41277 (antibody, V domains shown)
VH: QVQLQESGPGLVKPSGTLSLTCAVSGGSITGRNWWSWVRQPPGKELERIGEIYHGGSTEYNPSLKGRVTISVDKSKNQFSLRLNSVTAADTAVYYCARVAHYDSNGYYIGYFDLWGRGTLVTVSS
VL: EIVLTQSPPSLSASVGDRVTITCRASQSISIYLNWYQQKPGKAPKLLIFAASSLQSGVPLRFSGSGSGTDFTLTISSLQPEDFATYYCHQSYSAPWTFGQGTKVDIK
Consider B6, for which the Kd was determined as 3.6 nM in assay [1] and 0.78 nM in assay [2].

B7: ADI-41284 (antibody, V domains shown)
VH: QVQLVQSGGGLVKPGGSLRLSCAASGFTFSNAWMSWVRQAPGKGLEWVGRIKSEVDGGTADYAANVKGRLTISRDDSKNMMYLQMNSLKTEDTAVYYCTTDPGVGWIFGEVKLFRTDPEYWGQGTLVTVSS
VL: QSVLTQPPSVSAAPGQKVTISCSGSSSNIGNHYVSWYQQLPGTSPKLLIYDNNKRPSGIPDRFSGSKSGTSATLGITGLQPGDEADYYCGTWDSSLSAVRVFGGGTKVTVL
Regarding B7, the Kd amounted to 3.06 nM in assay [1] and 0.547 nM in assay [2].

B8: ADI-41280 (antibody, V domains shown)
VH: QVQLVESGPGLVKPSETLALTCTVSGGSLSTYYWSWIRQPPGKGLEWIGYIYYSGTTYYNPSLKSRVTISEDRSKNQFSLKLTSVTAADTAVYYCARHGPKTEFWSAQYYLELWGRGTLVTVSS
VL: EIVLTQSPGTLSLSPGERATLSCRASQSVSSDYLAWYQQKPGQAPSLLIYGVSTRATGIPDRISGSGSGTDFTLTISRLEPEDFAVYYCHQYGTSPWTFGQGTKVEIK
As for B8, the Kd in assay [1] worked out at 3.62 nM; in assay [2], 0.483 nM.

B9: ADI-41283 (antibody, V domains shown)
VH: QVTLKESGPTLVKPTQTLTLTCTFSGFSLSTFGVAVGWIRQPPGKALEWLALIYWDDDKRYSPSLKSRLTITKDISKNQVVLTMTNMDPVDTATYYCAHRLRSLTARGVFDIWGQGTTVTVSS
VL: DIRLTQSPSSLSASVGDRVTITCRASQSINNFLNWYQQRPGKAPTLLIYSASSLQSGVPSRFSGSGSGTDFTLTISSLQPEDFATYFCQQTDSFPWTFGQGTKVEIK
In the case of B9, the Kd in assay [1] was 27.4 nM; in assay [2], 7.95 nM.

B10: ADI-41291 (antibody, V domains shown)
VH: QVQLQQWGAGLLKPSETLSLTCVVYGESFSDSGYYWTWIRQPPEKGLEWIGEINHGGSTSYNPSLKSRVTISVDTSENQFSLKVTSVTGADTAVYYCARLRLGCSGGSCYSRFDYWGQGTLVTVSS
VL: DIQLTQSPSSLSASVGDRVTITCRASQSINSYLNWYQQKPGKAPVLLIHAASSLQGGVPSRFSGSGSGTDFTLTISSLQPEDFATYYCQQSYNTRWTFGHGTKVDIK
Take B10: the results for the Kd in assay [1] and in assay [2] were 2.98 nM and 1.2 nM, respectively.

B11: ADI-41279 (antibody, V domains shown)
VH: QVQLVQSGAEVKKAGETLKISCRGPAHTFTSFWIGWVRQTPGKGLEWMGNIYPGDTDTTYSPSFRGQVTISADKSISTAYLQWNSLKASDTAIYYCATRVRHGYSSSGSFESWGQGTMVTVSS
VL: QSVVTQPPSVSGAPGQRITISCTGSNSNTGAGYDVHWYQQLPGAAPKLLIFANNNRPSGVPDRFSGSKSGTSASLAITGLQAEDEADYYCQSYDNSLSAYVFGTGTKLTVL
As to B11, the Kd in assay [1] was 50.4 nM; in assay [2] it was 47.8 nM.

B12: ADI-41278 (antibody, V domains shown)
VH: EVQLVESGPALVKPTQTLTLTCTFSGFSLSTKRMGVSWIRQPPGKALEWLARIDWDDDKFYSTSLKTRLTISKDTSKNQVVLTLANMDPVDTATYFCARTTVYASGGYYLYYLDYWGQGTLVTVSS
VL: DIVMTQTPSSLSASVGDRVTLTCRASQRIASYVNWYHQKPGKAPNLLIYAASNLQSGVPSRFSGSGSGTDFTLTISSLQPEDFATYYCQQSYSTPLTFGQGTKLEIK
For B12, the dissociation constant (Kd) in assay [1] was 1.28 nM; in assay [2], 0.482 nM.

B13: ADI-41267 (antibody, V domains shown)
VH: QVQLVQSGPGLVKPSGTLSLTCAVSGGSISTTHWWSWVRQPPGKGLEWIGEIYHSGSTNYNPSLKSRVTISVDKSRSQFSLKLTSVTAADTAVYYCARGDPLCSGGICYSGYFDYWGQGTLVTVSS
VL: SYVLTQPPSVSVSPGQTATITCSGDKLGDQYACWYQQKSGQSPVLVIYRDNKRPSGIPERFSGSNSGNTATLTISETQAMDEADYYCQAWGSSSVVFGGGTKVTVL
On to B13, for which the Kd in assay [1] turned out to be 10.7 nM; in assay [2], 10.9 nM.

B14: ADI-41287 (antibody, V domains shown)
VH: EVQLVESGGGLVQPGRSLRLSCAASGFTFDDYAMHWVRQAPGKGLEWVSSISWHSADIGYAASVEGRFTISRDNAKNSLFLQMNSLRPEDTALYYCAKEIVSTSWYSGYFQDWGQGTLVTVSS
VL: QPVLTQPRSVSGSPGQSVTISCTGTSSDVGDYNYVSWYQQHPGKAPKLMIYDVSKRPSGVPDRFSGSKSGNTASLTISGLQGEDEADYYCCSYAGRHTFVFGTATKVTVL
As for B14, the Kd stood at 3.22 nM in assay [1] and 0.598 nM in assay [2].

B15: ADI-41286 (antibody, V domains shown)
VH: QVQLVQSGAEVKKPGASVKVSCKASGYTFISYGISWVRQAPGQGPEWMGWISTHNGNTNYAQKLQGRVTMTTDTSTSTAYMELRSLRSDDTAVYYCARDERSIAVEVYLGSTFDIWGQGTMVTVSS
VL: DIQVTQSPSSVSASVGDRVTITCRASQGISSWLAWYQQKPGKAPKLLIYAASTLQSGVPSRFSGSGSGTDFTLTISRLQPEDFATYYCQQANIFGVTFGPGTKVDIK
With B15, the Kd was 7.6 nM in assay [1] and 5.49 nM in assay [2].

B16: ADI-41270 (antibody, V domains shown)
VH: EVQLVESGGGVVQPGQSLRLSCAASGFTFSSFAMHWVRQAPGKGLEWVAVISYDGSNKYYADSVKGRFTISRDNSKNTLSLQVNSLRAEDTAVYYCARVSAEGSMGRFSDFNYWGLGTLVTVSS
VL: QSALTQPASVSGSPGQSITISCTGTSSDVGSYNLVSWYQQHPGKAPKLMIYEVRKRPSGVSNRFSGSKSGNTASLTISGLQAEDEADYYCCSYAGSDTYVFGTGTKLTVL
Consider B16, for which the results for the Kd in assay [1] and in assay [2] were 4.92 nM and 0.617 nM, respectively.

B17: ADI-41282 (antibody, V domains shown)
VH: QVQLVQSGGGVVQPGRSLRLSCAASGFMFTIYSMHWVRQAPGKGLEWVAVISNDGVNKYYSDSVKGRFTISRDNSKNTLYLQMNNLRAEDTAVYYCASDIVVLVTATDYWGQGTLVTVSS
VL: ETTLTQSPVTLSLSPGERATLSCRTSQSFSSPLLAWYQQKPGQAPRLLIYGASNRATGIPDRFSGSGSGTDFTLTISRLEPVDFAVYYCQQYGSSPYTFGQGTKLEIK
Turning to B17, the Kd in assay [1] was found to be 3.25 nM; in assay [2], 1.25 nM.

B18: ADI-41273 (antibody, V domains shown)
VH: EVQLLESGGDLVRPGGSLRLSCTASGFSFSSSEMNWVRQAPGKGLEWVASINSGGDDIYYADSVKGRFTISRDNAKNSLSLQMDSLRAEDTALYYCARSRSGYSSGWSRFFGNWGQGTLVTVSS
VL: QSALTQPRSVSGSPGQSVTISCTGTISDIGAYNYVSWYQQHPGKAPKVMIYDVSKRPSGVPDRFSGSKSGFTASLTISGLQAEDEADYYCCSYAGRWVFGGGTKLTVL
Regarding B18, the Kd came out at 3.06 nM in assay [1] and 1.17 nM in assay [2].

B19: ADI-41275 (antibody, V domains shown)
VH: EVQLVESGGGLVKPGGSLRLSCAASGFMFSTYSMNWVRQAPGKGLEWVSFITGSSSDKYYAHSVKGRFTISRDNAKRTLYLQLNSLRAEDTAVYYCARFRGLYCDGDCSSRGNTYYNYYGMDVWGQGTTVTVSS
VL: EIVMTQSPLSLSVIPGEPASISCRSSKSLLHSNGYTYLDWYLQKPGQSPQLLIHLGSNRASGVPDRFSGSGSGTDFTLKISRVEAEDVGVFYCMQALQAPPTFGPGTKVEIK
Regarding B19, the Kd in assay [1] is 5.74 nM; in assay [2] it was 1.33 nM.
